B1: VpADH: Vanderwaltozyma polyspora DSM 70294 ADH, SEQ ID NO: 38 (protein)
chain: MSYPEKFQGIGITNREDWKHPKKVTFEPKQFNDKDVDIKIEACGVCGSDVHCAASHWGPVAEKQVVGHEIIGRVLKVGPKCTTGIKVGDRVGVGAQAWSCLECSRCKSDNESYCPKSVWTYSIPYIDGYVSQGGYASHIRLHEHFAIPIPDKLSNELAAPLLCGGITVYSPLLRNGCGPGKKVGIVGIGGIGHMGLLFAKGMGAEVYAFSRTHSKEADAKKLGADHFIATLEDKDWTTKYFDTLDLLVICASSLTDINFDELTKIMKVNTKIISISAPAADEVLTLKPFGLIGVTIGNSAIGSRREIEHLLNFVAEKDIKPWVETLPVGEAGVNEAFERMDKGDVKYRFTLVDFDKEFGN
modifications: Vanderwaltozyma polyspora DSM 70294
B2: BtARD: Bos Taurus Aldehyde Reductase, SEQ ID NO: 27 (protein, listed as Bos taurus)
chain: MAASCILLHTGQKMPLIGLGTWKSDPGQVKAAIKYALSVGYRHIDCAAIYGNETEIGEALKENVGPGKLVPREELFVTSKLWNTKHHPEDVEPALRKTLADLQLEYLDLYLMHWPYAFERGDSPFPKNADGTIRYDSTHYKETWRALEALVAKGLVRALGLSNFNSRQIDDVLSVASVRPAVLQVECHPYLAQNELIAHCQARNLEVTAYSPLGSSDRAWRDPEEPVLLKEPVVLALAEKHGRSPAQILLRWQVQRKVSCIPKSVTPSRILENIQVFDFTFSPEEMKQLDALNKNLRFIVPMLTVDGKRVPRDAGHPLYPFNDPY
B3: EhADH1: Entamoeba histolytica ADH1, SEQ ID NO: 30 (protein, listed as Entamoeba histolytica)
chain: MKGLAMLGIGRIGWIEKKIPECGPLDALVRPLALAPCTSDTHTVWAGAIGDRHDMILGHEAVGQIVKVGSLVKRLKVGDKVIVPAITPDWGEEESQRGYPMHSGGMLGGWKFSNFKDGVFSEVFHVNEADANLALLPRDIKPEDAVMLSDMVTTGFHGAELANIKLGDTVCVIGIGPVGLMSVAGANHLGAGRIFAVGSRKHCCDIALEYGATDIINYKNGDIVEQILKATDGKGVDKVVIAGGDVHTFAQAVKMIKPGSDIGNVNYLGEGDNIDIPRSEWGVGMGHKHIHGGLTPGGRVRMEKLASLISTGKLDTSKLITHRFEGLEKVEDALMLMKNKPADLIKPVVRIHYDDEDTLH
B4: McADH: Mucor circinelloides ADH, SEQ ID NO: 39 (protein)
chain: MSEETFTAWACKSKSAPLEPMEMTFCHWDDDMVQMDVICCGVCGTDLHTVDEGWGPTEFPCVVGHEIIGNVTKVGKNVTRIKVGDRCGVGCQSASCGKCDFCKKGMENLCSTHAVWTFNDRYDNATKDKTYGGFAKKWRGNQDFVVHVPMDFSPEVAASFLCGGVTTYAPLKRYGVGKGSKVAVLGLGGLGHFGVQWAKAMGAEVVAFDVIPDKVDDAKKLGCDDYVLMQKEEQMEPHYNTFTHILATKIVNKCWDQYFKMLKNNGIFMLCDIPEVPLSGMSAFVMAGKQLTIAGTFIGSPSVIQECLDFAAKHNVRTWVNTFPMEKINEAFEFVRQAKPRYRAVVMN
modifications: Mucor circinelloides
B5: RpADH8: Rana perezi ADH8, SEQ ID NO: 28 (protein, listed as Rama perezi)
chain: MCTAGKDITCKAAVAWEPHKPLSLETITVAPPKAHEVRIKILASGICGSDSSVLKEIIPSKFPVILGHEAVGVVESIGAGVTCVKPGDKVIPLFVPQCGSCRACKSSNSNFCEKNDMGAKTGLMADMTSRFTCRGKPIYNLVGTSTFTEYTVVADIAVAKIDPKAPLESCLIGCGFATGYGAAVNTAKVTPGSTCAVFGLGGVGFSAIVGCKAAGASRIIGVGTHKDKFPKAIELGATECLNPKDYDKPIYEVICEKTNGGVDYAVECAGRIETMMNALQSTYCGSGVTVVLGLASPNERLPLDPLLLLTGRSLKGSVFGGFKGEEVSRLVDDYMKKKINVNFLVSTKLTLDQINKAFELLSSGQGVRSIMIY

Assays:
Format in all cases: biochemical
[1] = ADH activity assays of cell extracts and purified proteins; conditions: cell extracts or purified protein, initial experiments
Method: (§1) As a routine practice, the crude extracts and purified proteins were assayed for butanol oxidation activity, in order to ensure that the recombinant proteins were active throughout the purification process. […] Alcohol oxidation activities were carried out in 50 mM sodium phosphate buffer at pH 8.8 and aldehyde reduction reactions were assayed in 190 mM potassium phosphate buffer at pH 7.0. Depending on the nature of reaction being carried out, the enzyme and cofactor stocks were diluted in the reaction buffers at the respective pHs. Either buffer or cell extract prepared from the proprietary E. coli strain (with no ADH plasmid) was used as the negative control for assays with purified protein and cell-free extracts, respectively.
(§2) In initial experiments, there were insufficient levels of protein expression with EhADH1 and RpADH8. […] It is believed that one of skill in the art could further optimize expression and assay conditions for these candidates. Sufficient amounts of active protein could be purified with all other enzymes for which data are presented. […]

[2] = Isobutanol oxidation assay; conditions: Table 8
Method: as §1
Kinetic constants of the ADH enzymes were calculated and compared to identify those candidate ADH enzymes with the most desirable properties for the conversion of isobutyraldehyde to isobutanol in the last step of the engineered pathway for isobutanol production. The assays for determining the kinetic constants were carried out using initial rates from the assays described above. […] The concentration of a given enzyme was such that it was conducive for the measurement of initial velocities over a 1-min time course. For each enzyme, Michaelis-Menten plots were generated with a broad range of substrate concentrations. Rough estimates of KM were obtained, based on which the assays were redesigned so as to use substrate concentrations in the range 0.5 to 10 times the KM value, to be able to obtain the appropriate kinetic constants. […] When calculating the KI for isobutanol, the same reactions were carried out in the presence of varying concentrations of isobutanol (generally 0-535 mM) in the reaction (see FIG. 7, for example). Reactions with isobutanol substrate were performed at 30° C. in 50 mM Sodium phosphate buffer, pH 8.8, containing 7.5 mM NAD. The Enzyme kinetics module (Version 1.3) of SigmaPlot 11 (Systat Software, Inc.) was used to fit data to Michaelis-Menten equations and calculate the kinetic constants. The kcat/KM is derived from the individual numbers of kcat and KM and not an experimentally determined value. The ratios of the KM, KI, and kcat/KM for each candidate enzyme as compared to the same parameter for SadB are given in Table 9.

[3] = Cofactor specificity in isobutyraldehyde reduction reactions
Method: as §1, §2

Molecule | ADH activity [1] | conversion of isobutanol to isobutyraldehyde [2] | Other enzymatic properties and cofactor preference ([3]; Table 8) | COFACTOR PREFERENCE ([3]; isobutyraldehyde reduction, NADH or NADPH as cofactor)
B1 | no detectable activity | – | – | –
B2 | no detectable activity | – | – | –
B3 | failed to detect ADH activity | – | – | –
B4 | – | No measureable | NADH specific | NADH
B5 | failed to detect ADH activity | – | – | –

From patent publication US8765433B2, “Alcohol dehydrogenases (ADH) useful for fermentive production of lower alkyl alcohols” (Butamax Advanced Biofuels LLC, priority 2009, dated 2014)
